Here are results for 167 variants from the RNAGym collection of RNA variant scans (doi:10.1093/nar/gkz1192).

Sequences and labels used below:
B1: CPEB3 Ribozyme (parent)
chain: UAACAGGGGGCCACAGCAGAAGCGUUCACGUCGCAGCCCCUGUCAGAUUCUGGUGAAUCUGCGAAUUCUGCUGUAUAUCUC

The variants in this data set derive from B1. The data set can be described thus: self-cleavage, relative activity (ratio to wild type); higher = more cleavage; in vitro, sequencing. A digest of the protocol:
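After error-prone PCR and barcoding, CPEB3 ribozyme mutant libraries were transcribed with T7 RNA polymerase at 37°C for 5 hours, then given 15 min with DNase I before an EDTA stop, and they cleaved during both steps. Reverse transcription with template switching preceded Illumina sequencing. Relative activity divides a variant's cleaved/total read fraction by the unmutated ribozyme's. At least 5 reads were required per variant, and three batches were averaged.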
With A20G C68U, the self-cleavage is 0.75.
With C23U C29U the figure was 0.21; with A64U C71A, 0.18; with A18G U43C, 0.35.
Next, A3U C71U: 0.83; A3G U31G: 0.76; U1A U49C: 0.52.
With G8A A45U the figure was 0.06.
For A20G A35C, the self-cleavage amounted to 0.65.
Next, C38U U48C: 0.35; G36C: 0.31.
With A13U A57G the figure was 1.07; with A28U G73A, 0.99.
As to C40U U43A, the self-cleavage stood at 0.92.
In the case of A13C A56G, the self-cleavage worked out at 0.65.
Consider A20G U66A, for which the self-cleavage came out at 0.33.
With G8U U41G the figure was 0.39.
With A3G C39G the figure was 0.34.
With G6U G16C the figure was 0.19; with A65C A75G, 0.11; with U26A C34G, 0.41.
In the case of G55A U60C, the self-cleavage came out at 0.25.
With A20G U25A the figure was 0.27.
Next, A18G G63A: 0.51; A20G C79U: 0.85.
Next, C68U U74C: 1.19; C59A A75G: 0.16; G9C C34A: 0.14.
G6A G46U: the self-cleavage came out at 0.32.
With U26C C39A the figure was 0.33; with G9A U76A, 0.45.
Next, U54A U67C: 0.46; U72C A77C: 1.07.
Regarding C34U, the self-cleavage came to 0.35.
As to A18G U41C, the self-cleavage was 0.68.
Next, G42A A64U: 0.14; G61C A65G: 0.39.
Next, G55C C62U: 0.22.
With A45G U69A the figure was 0.42; with C11A U72C, 0.52.
For the variant G30A G61C, the self-cleavage was 0.24.
Next, U31A U67A: 0.34.
Turning to A56U U66A, the self-cleavage was 0.25.
Next, C12U U78A: 1.28; U1C C37A: 0.16.
In the case of A13C A75G, the self-cleavage worked out at 1.12.
For the variant U51C G52A, the self-cleavage was 1.15.
With G52U U66A the figure was 0.64; with G9A U48C, 0.36.
With U25C U66C the figure was 0.27.
Next, U26C U66C: 0.26; U25C A45C: 0.18; A28U G36A: 0.08.
Turning to C14G A35G, the self-cleavage came out at 1.24.
With U25C A57C the figure was 0.1.
With A35G U72C the figure was 1.26; with A57G G61A, 0.59; with G6U U49A, 0.38.
With C23G U43C the figure was 0.25; with U58C U66C, 0.28.
As for C38U U67A, the self-cleavage amounted to 0.41.
Next, U26A G70C: 0.2; A2U A56C: 0.73; U43A U66C: 0.53.
With C11G U67A the figure was 0.27; with A5G A20C, 0.58; with U31G A57G, 0.48.
Next, A28U A45C: 0.25.
As to G10A A56G, the self-cleavage was 0.15.
Next, G61A U69A: 0.4; C14A G73U: 1.26.
For A47G U78G, the self-cleavage was found to be 0.79.
Next, A2G C34U: 0.29; A28U G30A: 0.11; G24A A45U: 0.25.
For G16C A56G, the self-cleavage is 0.21.
With C27A A45G the figure was 0.22.
Next, C17G U41G: 0.08; G63A A77U: 0.99.
With C29U U60A the figure was 0.2.
A15G G63A: the self-cleavage came out at 0.79.
Next, A35C U51A: 1; A3G A77G: 1.03.
On to A13C U31C, for which the self-cleavage stood at 0.66.
With A21G C81U the figure was 0.92; with U69C U72C, 0.37.
Next, G8U G33U: 0.1.
With C14G A21U the figure was 0.16; with C50A A64C, 0.43.
Take A21G A28G: the self-cleavage is 0.35.
For U26C C79A, the self-cleavage amounted to 0.61.
With G16C U74C the figure was 0.25; with G53C, 1.13; with C59G U69C, 0.2.
With C14A U66C the figure was 0.4.
Take A47U U49A: the self-cleavage was 0.41.
With C14U C79A the figure was 1.29.
Take A18C U43C: the self-cleavage worked out at 0.21.
Next, A57G C79U: 1.1; A47U A75G: 0.38; A20G U48G: 0.31.
With C17U A21C the figure was 0.12; with C44U U66A, 0.51; with U26C G52A, 0.76.
Next, A3U U76G: 1.13; C27U U74A: 0.5; G19U G73U: 0.56.
In the case of A20U C71A, the self-cleavage was determined as 0.17.
With U54C U72G the figure was 0.87; with A75G U76C, 0.94; with A20G A57U, 0.53.
On to C39A U74A, for which the self-cleavage is 0.53.
With A45U U60C the figure was 0.46; with G19C G24A, 0.11.
Next, A57G U80G: 1.12.
Regarding G10A G42C, the self-cleavage amounted to 0.16.
Next, G24C U58C: 0.2; A13G C29A: 0.3.
Next, A13C U74C: 1.18; A2G A18G: 0.48.
With C34U U41G the figure was 0.12.
U31G A45U: the self-cleavage was determined as 0.57.
As for G30U C79G, the self-cleavage was 0.12.
Next, C32G U43C: 0.37; A45U U58C: 0.29; G24A U25C: 0.25.
With G19C U74C the figure was 0.19; with U54A U78A, 1.19; with A5U G19A, 0.72.
With A2U G36A the figure was 0.29; with A20G U43C, 0.4; with A13U C38U, 0.89.
Regarding C23A A57G, the self-cleavage came out at 0.26.
For G8A A13G, the self-cleavage is 0.44.
Take U58G U76A: the self-cleavage was determined as 0.51.
With G55A A64U the figure was 0.25; with U58C U60A, 0.26; with G33A C68U, 0.19.
Next, G10C U74G: 0.26; G36C U80C: 0.13.
With U25A U26G the figure was 0.29; with C17G U31C, 0.28.
Take G6U U58C: the self-cleavage came out at 0.16.
Next, A35U A77U: 0.59; G33A G52C: 0.12; A15G A28U: 0.39.
On to U60G A77U, for which the self-cleavage is 0.38.
Next, U48A A57U: 1.09; U48A A57G: 0.47; A15U A47C: 0.29.
For the variant U41C A45G, the self-cleavage was determined as 0.92.
Turning to A28U U67C, the self-cleavage was 0.27.
In the case of U26A C62U, the self-cleavage is 0.21.
Consider G33C C62U, for which the self-cleavage came to 0.14.
With U25G U48C the figure was 0.36.
Next, U1G A20C: 0.55; G6A C44U: 0.46; A5U A20G: 0.91.
Next, G8A C50U: 0.12; G30U A47G: 0.22.
Take A13G A64C: the self-cleavage was found to be 0.46.
As for G8C U69C, the self-cleavage was determined as 0.22.
With A45U G46A the figure was 0.41; with G6A U67C, 0.32.
On to C4U C50A, for which the self-cleavage is 1.17.
Next, A45G A64U: 0.3; C23U U48C: 0.14.
